This sample holds only a part of the variants without activity.

The test system of series [1] is biotinyl-Trp-oxazolone. The series can be described thus: self-aminoacylation, catalytic enhancement (BWO) (fold over background); higher = more active; k-Seq, kA / k0A0; sequences stand for … in GGGAAUGGAUCCACAUCUACGAAUUC…UUCACUGCAGACUUGACGAAGCUG
In short, it runs like this:
(§1)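 Mutagenized RNA pools (0.43 μM; 21-nt variable region) were treated with 2–1250 μM of each biotinyl-aminoacyl-oxazolone. Conditions were 50 μL HEPES/NaCl/KCl/MgCl2/CaCl2 buffer, 5% acetonitrile, pH 6.9–7.0, room temperature, 90 minutes. Catalytic enhancement, the median kA relative to the uncatalyzed rate, was derived from streptavidin capture, qPCR and Illumina sequencing.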

For series [2], the system named is biotinyl-Ile-oxazolone. Briefly: self-aminoacylation, catalytic enhancement (BIO) (fold over background); higher = more active; k-Seq, kA / k0A0; sequences stand for … in GGGAAUGGAUCCACAUCUACGAAUUC…UUCACUGCAGACUUGACGAAGCUG
In short, it runs like this: as §1

Series [3] concerns biotinyl-Leu-oxazolone. The series can be described thus: self-aminoacylation, catalytic enhancement (BLO) (fold over background); higher = more active; k-Seq, kA / k0A0; sequences stand for … in GGGAAUGGAUCCACAUCUACGAAUUC…UUCACUGCAGACUUGACGAAGCUG
In short, it runs like this:
as §1

For series [4], the system named is biotinyl-Val-oxazolone. Briefly: self-aminoacylation, catalytic enhancement (BVO) (fold over background); higher = more active; k-Seq, kA / k0A0; sequences stand for … in GGGAAUGGAUCCACAUCUACGAAUUC…UUCACUGCAGACUUGACGAAGCUG
In short, it runs like this: as §1

The test system of series [5] is biotinyl-Met-oxazolone. Briefly: self-aminoacylation, catalytic enhancement (BMO) (fold over background); higher = more active; k-Seq, kA / k0A0; sequences stand for … in GGGAAUGGAUCCACAUCUACGAAUUC…UUCACUGCAGACUUGACGAAGCUG
In short, it runs like this:
as §1

In series [6] the test system is biotinyl-Phe-oxazolone. The series can be described thus: self-aminoacylation, catalytic enhancement (BFO) (fold over background); higher = more active; k-Seq, kA / k0A0; sequences stand for … in GGGAAUGGAUCCACAUCUACGAAUUC…UUCACUGCAGACUUGACGAAGCUG
In short, it runs like this:
as §1

As to “AUUCACCUAGCUCAUCGGGUA [Fam2.2 aminoacylation ribozyme variant]”, the self-aminoacylation in series [1] was 2.53; in series [2] it was 2.08; in series [3], 2.41; in series [4] it was 2.54; in series [5], 2.03; in series [6], 11.2.
For “AAGUUUGGUAAUAGUCGGAAG [Fam3.1 aminoacylation ribozyme variant]”, the self-aminoacylation in series [1] was determined as 1.08; in series [2], 0.893; in series [3] it was 0.717; in series [4], 0.815; in series [5] it was 0.771; in series [6] it was 1.11.
With “CCACGUUUCAAGCAAUCGGUC [Fam1B.1 aminoacylation ribozyme variant]”, the self-aminoacylation in series [1] was determined as 37.6; in series [2], 2.68; in series [3] it was 3.36; in series [4], 3.47; in series [5], 2.85; in series [6], 77.2.
For “CCAUACUUCAAGCGAUCGGUC [Fam1B.1 aminoacylation ribozyme variant]”, the self-aminoacylation in series [1] is 0.926; in series [2] it was 1.15; in series [3], 0.976; in series [4], 1.25; in series [5], 1.02; in series [6], 1.17.
With “CUUACCCUGGUCAUCGAGUGA [Fam2.1 aminoacylation ribozyme variant]”, the self-aminoacylation in series [1] was determined as 26.1; in series [2] it was 9.83; in series [3], 23.1; in series [4] it was 11; in series [5] it was 25.3; in series [6], 85.8.
Regarding “CUACUUCAAACAAUAGGUCUG [Fam1A.1 aminoacylation ribozyme variant]”, the self-aminoacylation in series [1] is 0.617; in series [2], 0.813; in series [3], 0.681; in series [4], 0.817; in series [5], 0.696; in series [6], 1.11.
“AAAUUUGCUUAUAGUCGCAAG [Fam3.1 aminoacylation ribozyme variant]”: the self-aminoacylation in series [1] stood at 2.14; in series [2] it was 2.26; in series [3] it was 1.93; in series [4], 1.59; in series [5] it was 1.91; in series [6] it was 2.37.
Regarding “CCUCACUUCAAGCAAUUGGUC [Fam1B.1 aminoacylation ribozyme variant]”, the self-aminoacylation in series [1] was found to be 0.673; in series [2], 0.654; in series [3] it was 0.506; in series [4], 0.606; in series [5], 0.562; in series [6], 1.67.
With “AUUACCGUGGUUAUCGAGUGA [Fam2.1 aminoacylation ribozyme variant]”, the self-aminoacylation in series [1] was found to be 11.4; in series [2], 4.22; in series [3], 10.4; in series [4], 5.1; in series [5], 10.7; in series [6] it was 59.4.
Consider “CUACUUCAAACAAUCGGCGUG [Fam1A.1 aminoacylation ribozyme variant]”, for which the self-aminoacylation in series [1] worked out at 5.22; in series [2], 3.35; in series [3] it was 6.1; in series [4] it was 3.12; in series [5] it was 4.44; in series [6], 6.45.
With “AUUCCCCUAGGACAUCGGGUG [Fam2.2 aminoacylation ribozyme variant]”, the self-aminoacylation in series [1] stood at 8.25; in series [2] it was 6.12; in series [3] it was 9.47; in series [4] it was 6.82; in series [5] it was 7.14; in series [6] it was 44.8.
With “AUUCACCCAGAUCAUCGGGUG [Fam2.2 aminoacylation ribozyme variant]”, the self-aminoacylation came out at 1.84 in series [1]; 1.85 in series [2]; 2.43 in series [3]; 2.26 in series [4]; 1.82 in series [5]; 7.26 in series [6].
Turning to “AUUACCCCGGUCAUCGAGGGA [Fam2.1 aminoacylation ribozyme variant]”, the self-aminoacylation in series [1] was found to be 1.67; in series [2], 1.15; in series [3], 1.07; in series [4], 1.93; in series [5] it was 1.21; in series [6] it was 2.68.
For “CUACUUCAUACAAUCUGUCUG [Fam1A.1 aminoacylation ribozyme variant]”, the self-aminoacylation in series [1] stood at 0.424; in series [2], 0.668; in series [3], 0.566; in series [4], 0.682; in series [5], 0.64; in series [6] it was 0.66.
With “CCGCACUUCAAGCAUUCGGUC [Fam1B.1 aminoacylation ribozyme variant]”, the self-aminoacylation in series [1] worked out at 1.76; in series [2], 2.17; in series [3], 1.62; in series [4], 2.28; in series [5], 1.85; in series [6], 1.88.
“AAGUUUGCUAACAGUCGCGAG [Fam3.1 aminoacylation ribozyme variant]”: the self-aminoacylation in series [1] turned out to be 2.46; in series [2], 1.02; in series [3] it was 1.24; in series [4], 1.12; in series [5] it was 0.591; in series [6] it was 1.64.
“AUUUCCGUGGUCAUCGAGUGA [Fam2.1 aminoacylation ribozyme variant]”: the self-aminoacylation turned out to be 8.19 in series [1]; 3.67 in series [2]; 6.35 in series [3]; 4.26 in series [4]; 6.67 in series [5]; 52.8 in series [6].
Turning to “UUUCAGCUAGGUCAUCGGGUG [Fam2.2 aminoacylation ribozyme variant]”, the self-aminoacylation in series [1] came to 7.4; in series [2] it was 4.98; in series [3], 6.61; in series [4], 6.04; in series [5], 5.9; in series [6] it was 39.
Take “CUACUUCUAACAAUGGGUCUG [Fam1A.1 aminoacylation ribozyme variant]”: the self-aminoacylation worked out at 0.566 in series [1]; 0.833 in series [2]; 0.697 in series [3]; 0.705 in series [4]; 0.718 in series [5]; 0.582 in series [6].
For the sequence “CCACACUUCAAGUAGUCGGUC [Fam1B.1 aminoacylation ribozyme variant]”, the self-aminoacylation amounted to 0.919 in series [1]; 0.96 in series [2]; 0.92 in series [3]; 0.865 in series [4]; 0.857 in series [5]; 0.856 in series [6].
“AUUACCCUGCUCGUCGAGUGA [Fam2.1 aminoacylation ribozyme variant]”: the self-aminoacylation is 0.43 in series [1]; 0.725 in series [2]; 0.689 in series [3]; 0.766 in series [4]; 0.533 in series [5]; 0.752 in series [6].
Turning to “AUUCCCCUAGGUCAUCGGGCG [Fam2.2 aminoacylation ribozyme variant]”, the self-aminoacylation in series [1] came to 9.17; in series [2] it was 9.9; in series [3] it was 13.5; in series [4], 11.3; in series [5], 15.7; in series [6], 81.8.
“AUUCACCUACGUCCUCGGGUG [Fam2.2 aminoacylation ribozyme variant]”: the self-aminoacylation in series [1] came out at 4.21; in series [2] it was 2.7; in series [3], 7.17; in series [4], 2.12; in series [5], 4.71; in series [6], 33.2.
With “CCACACAUCAAGCAAGCGGUC [Fam1B.1 aminoacylation ribozyme variant]”, the self-aminoacylation in series [1] came to 0.988; in series [2], 0.968; in series [3] it was 0.901; in series [4], 1.03; in series [5], 0.779; in series [6], 0.546.
“AAGUUUGCAAAUAGUCGAAAG [Fam3.1 aminoacylation ribozyme variant]”: the self-aminoacylation in series [1] came to 1.04; in series [2], 0.956; in series [3], 0.913; in series [4], 0.824; in series [5], 0.974; in series [6], 1.58.

The values above are taken from the supplement of paper PMC9233669.
